Consider 41 sequences from the nanobody polyreactivity screen of Harvey et al. (2022).

This series in a line: yeast display, Sf9 membrane polyspecificity reagent, FACS + sequencing; frameworks hold sequencing errors. A digest of the protocol:
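Galactose-induced (36–48 hours) yeast carrying a synthetic nanobody display library were exposed to 10% biotinylated, detergent-solubilized Sf9 membrane reagent at 4 °C for 1 hour. FACS followed streptavidin microbead enrichment, using low and high (top ~1%) gates for expression (anti-HA) and reagent binding (streptavidin). Colony PCR, MiSeq 2 × 250 sequencing and CDR-length filtering followed. Labels for polyreactivity reflect the gate of origin.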
For the sequence “QVQLVETGGGLVQAGGSLRLSCAASASIFTANAMGWYRQAPGKERELVAAISRSGGRTYYADSVKGRFTISRDNAKNTVYLQMNSLKPEDTAVYYCAAVYVYPSTSRYDFWGQGTQVTVSS”, the “polyreactivity (PSR sort gate)” value is recorded as “high polyreactivity”.

With “QVQLVETGGGLVQAGGSLRLSCAASGFIFGYNARGWYRKAPGQVRELVAAISSGGRTYYADSVKGRFTISRDNAKHTVYLQMNSLKPQDTAVYYCSVDPHLYALRGAVYYWGQGTQVTVSS”, the “polyreactivity (PSR sort gate)” value is on record as “low polyreactivity”.

For “QVQLVETGGGLVQAGGSLRLSCAASGFNFGPYDIGWYIQAPGKERELVAAITDSSGSTHYADSVKGRFTISRDNAKNTVYLQMNSLKPEDTAVYYWAADDSSRTTYDYWGQGTQVTVSS”, the “polyreactivity (PSR sort gate)” value is recorded as “low polyreactivity”.

Regarding “QVQLVETGGGLVQAGGSLRLSCAASGFTFDVYVMGWYRLAPGKERELVAAISWSGDSTYYADSVKGRFTISRDNAKNTVYLQMNSLKPADCAFSFCAAVGYTSRRPVVRYYYWGQGTQVTVSS”, the “polyreactivity (PSR sort gate)” value is listed as “high polyreactivity”.

For “QVQLVETGGGLVQAGGSLRLSCAASGFTFYNNAMGWYGQAPGKERELGAVITSNGGRTYYADSVKGRFTISRDNAKNTVYLQMNSLKPEDTAVYYCAKDYKAMYLYHYRISGGDVDYWGQGTQVTVSS”, the “polyreactivity (PSR sort gate)” value is listed as “low polyreactivity”.

For the sequence “QVQLVETGGGLVQAGGSLRLSCAASGGIFVTYAMGWYRQAPGKERELVAAITSGDSTYYADSVKGRFTISRDNAKNTVYLQMNSLKAEDTGVYYCAVGSTDRVSAQGSYFTYDYWGQGTQVTVSS”, the “polyreactivity (PSR sort gate)” value was “low polyreactivity”.

Regarding “QVQLVETGGGLVQAGGSLRLSCAASGIIFFYYGMGWYRQAPGKERELVARISSGGSTNYADSVKGRFTISRDNAKNTVYLHMNSLKQEDTAVYYCAARISTRYGYWGPGTQVTVSS”, the “polyreactivity (PSR sort gate)” value is on record as “low polyreactivity”.

Turning to “QVQLVETGGGLVQAGGSLRLSCAASGIIIQNNAMGWYRQAPGTERELVAAISSSGGRTYYADSVKGRFTISRDNAKNTVYLQMNSLKPEDTEVYYCNKRWRGSYDYWGQGTQVTVSS”, the “polyreactivity (PSR sort gate)” value is on record as “high polyreactivity”.

For the sequence “QVQLVETGGGLVQAGGSLRLSCAASGITFASYDMGWYRQAPGKEWELVAAISSGGDTTYADSVKGRFTLSRDNAKNTVSLQMNSLKPEDTAVYYCNKDIDFAVSAYESSPRTMYYWGQGTQVTVSS”, the “polyreactivity (PSR sort gate)” value was “low polyreactivity”.

Take “QVQLVETGGGLVQAGGSLRLSCAASGITLPKYAMGWYRQAPGKERELVAAISRSSGRTYYADSVKGRFTISRDNAKNTVYLQMNSLKPEDTAVYYCAASHGGYITRYNYWGQGTQVTVSS”: the “polyreactivity (PSR sort gate)” value is “high polyreactivity”.

For “QVQLVETGGGLVQAGGSLRLSCAASGLIFYSYTMGWYRQAPGKERELVAVISRSGTSTYYADSVKGRFTISRDNAKNTVYLQMNSLKPEDTAVYYCAARAYVSHYGVSNFGYYYWGQGTQVTVSS”, the “polyreactivity (PSR sort gate)” value was “high polyreactivity”.

Regarding “QVQLVETGGGLVQAGGSLRLSCAASGNTFHSNAMGCYSQAPGKERELVAAITPSDGDPYYADSVKGRFTISRDNAKNTVYLQMNSLKPEDTAVYYCAAEDDPGEYEYWGQGTQVTVSS”, the “polyreactivity (PSR sort gate)” value is “low polyreactivity”.

For the sequence “QVQLVETGGGLVQAGGSLRLSCAASGNTFVLYAMGWYRQAPGKERELVAAIRRGVRTYADSVKGRFTISRDNAKNTFYLQMNSLIPDDTAVYYCAAYYVFLDNDYWGHGTQVTVSS”, the “polyreactivity (PSR sort gate)” value is recorded as “high polyreactivity”.

With “QVQLVETGGGLVQAGGSLRLSCAASGRIFSNYVMGLYRQAPVKERELVAAISGSGGRTYYADSVKGRFTISRDNAKNTVYVQMNSRTPEDTAVYYCAARRSERDRYGGYYYWGQGTQVTVSS”, the “polyreactivity (PSR sort gate)” value is on record as “high polyreactivity”.

With “QVQLVETGGGLVQAGGSLRLSCAASGRIIRYNAMGWYSQAPGKERELVAAISTRGGNTYYADSVKGRFTISRDNAKNTVYLQMNSLKPEDTAVYYCNARSSLPYNYWGQGTQVTVSS”, the “polyreactivity (PSR sort gate)” value is “high polyreactivity”.

Consider “QVQLVETGGGLVQAGGSLRLSCAASGRISQNAMGWYRQAPGKERELVAAITFSGGSTYYADSVKGRFTISRDNAKNTVYIQMNSLKAEDTAVYYCNVRQYTDGMKYDYWGQGTQVTVSA”, for which the “polyreactivity (PSR sort gate)” value is “low polyreactivity”.

As to “QVQLVETGGGLVQAGGSLRLSCAASGRISYDYAMGWYRPPPGKERELVAAITTGGNTYYADSVKGRFTISRDNAKNTVYLQLNRLKPEDTAVYYCSVRGPYVRYNRYNYVYWGQGTQVTVSS”, the “polyreactivity (PSR sort gate)” value was “low polyreactivity”.

On to “QVQLVETGGGLVQAGGSLRLSCAASGRIYYVYDMGWYRQAPGKERELVAAISWSGGSTSYADSVKGRFTISRDNAKYTVYLQMNSLKPDDTAVYYCAATSAIGWGYDYWGQGTQVTVSS”, for which the “polyreactivity (PSR sort gate)” value was “low polyreactivity”.

As to “QVQLVETGGGLVQAGGSLRLSCAASGRNFNWNTMGWYRQAPRKEREFDAAISGSGGSTYYADSVKGRFTISRDNAKNTVYLQMISLKPEDTAVYYCAKRLYYSYYDEMDYWGQGTQVTVSS”, the “polyreactivity (PSR sort gate)” value is recorded as “high polyreactivity”.

Consider “QVQLVETGGGLVQAGGSLRLSCAASGRTFDGNVMGWYRQEPGKERELGAAISDRGTRTYYADSVKGRFTISRDNAKNTVYLQMNSLKPEDTAVYYCATRVYFSPYRYDYWGQGTQGTVSS”, for which the “polyreactivity (PSR sort gate)” value is on record as “high polyreactivity”.

Regarding “QVQLVETGGGLVQAGGSLRLSCAASGRTFRAYAMGWYRQAPGKEMELVAAITSGGSTKYADSVNGRFTISRDNAKNTVYLQMTRLKPEDTAVYYCAATLALESYIYDYWGQGTQVTVSS”, the “polyreactivity (PSR sort gate)” value is “high polyreactivity”.

For “QVQLVETGGGLVQAGGSLRLSCAASGRTFRYNAMGWYRQAPGKERELVAAITGSGGSTYYADSVKGRFTISRDNAKNTVYLQMNSLKPEDTAVYYCARAYSYRLYPYGSWGQGTQVTVSS”, the “polyreactivity (PSR sort gate)” value was “high polyreactivity”.

“QVQLVETGGGLVQAGGSLRLSCAASGRTFWYYAMGWYRQAPVTERELVAYADSVKGRFTISRDNAKNTVYLQMNSLKPEDTAVYYCAVGPVVWFSSSLYYTDYYYWGQGTEVTVSS”: the “polyreactivity (PSR sort gate)” value is given as “low polyreactivity”.

On to “QVQLVETGGGLVQAGGSLRLSCAASGRTFYGNAMGWYRQAPGKEREFVAAIRGSGGSTYYADSVKGRFTISRDNAKNTVYLQMNSLKPEDTAVSYCNRGWAYGSAYYAKYYYWGQGTQVTVSS”, for which the “polyreactivity (PSR sort gate)” value is listed as “high polyreactivity”.

Turning to “QVQLVETGGGLVQAGGSLRLSCAASGRTYAFYAMGWYRQAPGKERELVASISSSGDRPYYADSVKGRFTISRDNAKNTVFLQLNSLKPEDTAVYYCAARWRYTYYYWGQGTQVTVSS”, the “polyreactivity (PSR sort gate)” value is recorded as “high polyreactivity”.

Regarding “QVQLVETGGGLVQAGGSLRLSCAASGSIFEYNAMGWYRQAPGKERELVAAISWSSGTTYYADSVKGRFTISRDNAKNSVYLQMNSLKPEDNAVYYCNAGRYGKDSVYWGQVTQVTVSS”, the “polyreactivity (PSR sort gate)” value was “low polyreactivity”.

As for “QVQLVETGGGLVQAGGSLRLSCAASGSIFGAYAMGWYRQAPGKERELVAAITWTAGSTFYADSVKGRFTISRDNAKNTVYLQMNSLKPEDTAVYYCAAEYYTETQWSRYYRYYYWGQGTQVTVSS”, the “polyreactivity (PSR sort gate)” value is “low polyreactivity”.

For “QVQLVETGGGLVQAGGSLRLSCAASGSIFLKYAMGWYRQAPGKERELVAAISWSGGRTYYADSVKGRFTISRDNAKNTVYLQMNSLIPEDTAVYYCAAAGRVNNGYRGYGYWGQGTQVTVSS”, the “polyreactivity (PSR sort gate)” value is recorded as “high polyreactivity”.

Consider “QVQLVETGGGLVQAGGSLRLSCAASGSIFPSYAMGWYRPAPAKERELVAAISRSAGSTYYADSVKGRFTISRDNSKNTVYLQMNSLKPEDTAVYYCADDGYSSRYRYDYWGQGTQVTVSS”, for which the “polyreactivity (PSR sort gate)” value is “low polyreactivity”.

With “QVQLVETGGGLVQAGGSLRLSCAASGSIFSIYAMGWYRQAPGKERELVAAISWSGGSTYYADSVKGRFTISRDNAKNTVYLQMNSLKPEDTAVYYCLRQDYHYHPYDYWGQGTQVTVSS”, the “polyreactivity (PSR sort gate)” value is “low polyreactivity”.

As for “QVQLVETGGGLVQAGGSLRLSCAASGSIFTYYAMGWSRQAPGKERELVAAITSGGSTYYADSVKGRFTISRDNAKNTVYLQMNSLKPEDTAVYYCNAVTFYRYYTGKYDYWGQGTQVTVSS”, the “polyreactivity (PSR sort gate)” value is “high polyreactivity”.

Regarding “QVQLVETGGGLVQAGGSLRLSCAASGSIFVLYAMGWYRQAPGKEREFVAAISSSGGSTYADSVKGRFTISRDNAKNTVYLQMNSLKPEDTAVYYCARDVYLSDPPRDYDYWGQGTQVTVSS”, the “polyreactivity (PSR sort gate)” value is “low polyreactivity”.

As to “QVQLVETGGGLVQAGGSLRLSCAASGSIFVRNAMGWYRQAPGKERELVAAINRDGGRTYYADSVKGRFTISRDNAKNTVYLQMNSLKPEDTAVYYCNAGGVSFEYGYWGQGTQVTVSS”, the “polyreactivity (PSR sort gate)” value is “high polyreactivity”.

Turning to “QVQLVETGGGLVQAGGSLRLSCAASGSIFYGYAMGWYSQSHGQEREFVAAITFSATSTYYADSVKGRFTISRDNAKNPVYLQMNSLKPEDTAVYYCAAVIGDWQYQYYYWGQGTLVTVSS”, the “polyreactivity (PSR sort gate)” value is “low polyreactivity”.

Take “QVQLVETGGGLVQAGGSLRLSCAASGSILYYKPMGWYRQAPGKERELVASISLTGGSTTYADSVKGRFTISRDNAKNTVYLQMNSLKPEDTAVYYCNATQYPAADRSTNNYGGGFDSWGQGTQVTVSS”: the “polyreactivity (PSR sort gate)” value was “low polyreactivity”.

Consider “QVQLVETGGGLVQAGGSLRLSCAASGSISGFIDMGWYRQAPGKERELVAAISYSGGRTYYADSVKGLFTISRDNAKNTVFLQMNSLKPEDTAVYYCAADKFIYSKYTVIRDDYWGQGTQVTVSS”, for which the “polyreactivity (PSR sort gate)” value is reported as “high polyreactivity”.

For “QVQLVETGGGLVQAGGSLRLSCAASGSTFSRNAMGWYRQAPGKEREFVAAISWSGSSTYYADSVKGRFTISRDNEKNTVYLQMNSLKPEDTAVYYCAARETWYPYYWMGYWGQGAQVTVSS”, the “polyreactivity (PSR sort gate)” value is “high polyreactivity”.

Regarding “QVQLVETGGGLVQAGGSLRLSCAASGSTFWRNSMGWYRHAPGKEREFVASISWSGGGTYYADSVKGRFTISRDNAKNTVYLQMNILKPEDTAVYYCAATPYWSYWYGNGDYDYWGQGTQVTVSS”, the “polyreactivity (PSR sort gate)” value is listed as “low polyreactivity”.

For the sequence “QVQLVETGGGLVQAGGSLRLSCAASGSTFYNYAMGWYRQAPGKEREFVAAISWGGGSTRYADSVKGRFTISRDYAKNTVYLQMNSLKPEDTAVYYCAARYPHYDYYYWGQGTQVTVSS”, the “polyreactivity (PSR sort gate)” value was “high polyreactivity”.

Regarding “QVQLVETGGGLVQAGGSLRLSCAASRSIFLYYAMGWYRQAPGKERELVAAISYSGSGTYADSVKGRFTISRDNAKNTVYLEMNSLKPEDTAVYYCNVDYGSYSYDYWGQGTQVTVSS”, the “polyreactivity (PSR sort gate)” value was “low polyreactivity”.

Consider “QVQLVETGGGLVQAGGSLRLSCADSGSICEQYTMGWYRQAPGKERELVAGSSSGGITNYADSVKGRFTISRDNAKNTVYLQMNSLKPEDTAVYYCAADNWYLAEYDYWGEGTQVTVSS”, for which the “polyreactivity (PSR sort gate)” value is reported as “low polyreactivity”.
